Legend:
[1] = molecular target: recombinant human stanniocalcin 2, C-terminally myc-his-tagged
[2] = molecular target: recombinant human stanniocalcin 1, C-terminally myc-his-tagged
[3] = molecular target: STC2(C120A), human stanniocalcin 2 with cysteine 120 replaced by alanine, C-terminally myc-his-tagged

B1: murine PAPP-A2 (protein)
chain: QNGGGASLRRVETFNSQGGLPVLYFTGKRERLLLRPEVLAEIPREAFTVEAWVRPEGGQSNPAIIAGVFDNCSHTVNDKGWALGIRSGKDKGWRDARFFFSLRTDRMKKATIVTGHSRYQPGMWTHVAATYDGQHTALYVDGTRVASSRDQFGPLNSPFMASCRSLILGGDSSEDGHYFRGYLGTLVIWSTALSQTHLQHSPLHPSAADELTTLILTATFDPLMEQWAPFRDDLYPRLEVLQDSESQPEILSPLQPPPCGQTACDNVELISQYNKHGPLRREKVIRYQVVNIYDDEGLHPIVSDHQIRRQHEALNQAFSRYNISWQLSVHRVHNSTLRHRVVLVNCEPSKIGNDHCDPECEHPLTGFDGGDCRLQGRCYSWNRRDGLCHVECNNMLNDFDDGDCCDPEVTDVRKTCFDPDSPKRAYMSVKELKEALQLNSTHFLNVYFASSVREDLAGSATWPWDKEALSHLGGVVLNPTYYGMLGHTNIMIHEVGHVLGLYHVFKGVSERESCDDPCRETVPSMETGDLCADTAPTPKSKLCRDPEPANDTCGFTLFPGAPFNNYMSYTDDECTDNFTPNQVARMHCYLDLVYQQWSESQKPTPIPIPPMVIGQTHKSLTIHWLPPISGVVYDRAPDSMCSACTEDGTFRQYVYKASSGRVCDSSGYWTPEEAVGPPDVDQPCEPSLQAWSPELHLNHMNMTVPCPAEGCSLELLFQYPVQADTLTLWVTYLSMNSSKAFFDIEILLEHKKSMHLGPLNTFCDIPLTIKLHMDEKVMGAKVYTFDERMEIDAALLTSRPNSSLCSGCKPMSYQVLREPPFSSGLPMVVTHPHRKFTDTEVIPGQMYQYQVQAEAVGELGEASPPLSHIHGGPYCGDGKVERSIGEMCDDGDLLNGDGCSRACELEEGFNCAGEPSLCYRYEGDGVCEDFEKESIITDCGLHTPEGYLDQWASQAYSYHEDKEKCPVSLVTGEPHSMICTSWHPDSSPYHSFPGWFPCVFSLKKDQDAGSEQAKDSLQKDNEIWLEVCFNRPGVAVAIYIFLASDGVTPGEHQQATVTLYLIDVSGSNHSLGTYGLSCQQNPLVINVSHHVNVYPQHTSSMLLNFSSPLVGISAVALRTSSQTSSSAPSNCIPEQNYEGKSCAQRPCGEQGRCAPLLLDHTDMVNCTSSSPGHMECAITCQRGYVLQTSSGQYLRNMQKEILLTCSSGHWDKDVICKRLDCGVPDSSLVNYANFSCLEGTDFLKQCSISCVPPAKLQGLNPWLTCLEDGLWSLPEVYCKLECEAPPVIPNANLLLPHFLEGNHDVGTICKYECKPGYYVKETSGSQGKNKFLKIQCLDDGSWEQGSCVPVVCEPPPPVFEGMYECTDGFKLDSQCVLNCNQETEGIPILCTKEGLWTQEFKLCENLQGECPPPTSELNSVEYKCGQGYGIGAVCSPSCVIPPSDPVILPENVTTDTLEHWMEPVKVQSIVCTGRRQWHPDPSLVHCIQSCEPFQADGWCDTINNRAYCNYDGGDCCSSTLSSKKVIPFAADCDLDECTCRDPKAEENQ
- proteolytic activity of murine PAPP-A2 towards radiolabeled IGFBP-5 [1]: Murine PAPP-A and PAPP-A2 are inhibited by STC1 and STC2, but not STC2(C120A)
- proteolytic activity of murine PAPP-A2 towards radiolabeled IGFBP-5 [2]: Murine PAPP-A and PAPP-A2 are inhibited by STC1 and STC2, but not STC2(C120A)
- proteolytic activity of murine PAPP-A2 towards radiolabeled IGFBP-5 [3]: Murine PAPP-A and PAPP-A2 are inhibited by STC1 and STC2, but not STC2(C120A)

B2: recombinant human PAPP-A (pregnancy-associated plasma protein-A, pappalysin-1) (protein)
chain: EARGATEEPSPPSRALYFSGRGEQLRLRADLELPRDAFTLQVWLRAEGGQRSPAVITGLYDKCSYISRDRGWVVGIHTISDQDNKDPRYFFSLKTDRARQVTTINAHRSYLPGQWVYLAATYDGQFMKLYVNGAQVATSGEQVGGIFSPLTQKCKVLMLGGSALNHNYRGYIEHFSLWKVARTQREILSDMETHGAHTALPQLLLQENWDNVKHAWSPMKDGSSPKVEFSNAHGFLLDTSLEPPLCGQTLCDNTEVIASYNQLSSFRQPKVVRYRVVNLYEDDHKNPTVTREQVDFQHHQLAEAFKQYNISWELDVLEVSNSSLRRRLILANCDISKIGDENCDPECNHTLTGHDGGDCRHLRHPAFVKKQHNGVCDMDCNYERFNFDGGECCDPEITNVTQTCFDPDSPHRAYLDVNELKNILKLDGSTHLNIFFAKSSEEELAGVATWPWDKEALMHLGGIVLNPSFYGMPGHTHTMIHEIGHSLGLYHVFRGISEIQSCSDPCMETEPSFETGDLCNDTNPAPKHKSCGDPGPGNDTCGFHSFFNTPYNNFMSYADDDCTDSFTPNQVARMHCYLDLVYQGWQPSRKPAPVALAPQVLGHTTDSVTLEWFPPIDGHFFERELGSACHLCLEGRILVQYASNASSPMPCSPSGHWSPREAEGHPDVEQPCKSSVRTWSPNSAVNPHTVPPACPEPQGCYLELEFLYPLVPESLTIWVTFVSTDWDSSGAVNDIKLLAVSGKNISLGPQNVFCDVPLTIRLWDVGEEVYGIQIYTLDEHLEIDAAMLTSTADTPLCLQCKPLKYKVVRDPPLQMDVASILHLNRKFVDMDLNLGSVYQYWVITISGTEESEPSPAVTYIHGSGYCGDGIIQKDQGEQCDDMNKINGDGCSLFCRQEVSFNCIDEPSRCYFHDGDGVCEEFEQKTSIKDCGVYTPQGFLDQWASNASVSHQDQQCPGWVIIGQPAASQVCRTKVIDLSEGISQHAWYPCTISYPYSQLAQTTFWLRAYFSQPMVAAAVIVHLVTDGTYYGDQKQETISVQLLDTKDQSHDLGLHVLSCRNNPLIIPVVHDLSQPFYHSQAVRVSFSSPLVAISGVALRSFDNFDPVTLSSCQRGETYSPAEQSCVHFACEKTDCPELAVENASLNCSSSDRYHGAQCTVSCRTGYVLQIRRDDELIKSQTGPSVTVTCTEGKWNKQVACEPVDCSIPDHHQVYAASFSCPEGTTFGSQCSFQCRHPAQLKGNNSLLTCMEDGLWSFPEALCELMCLAPPPVPNADLQTARCRENKHKVGSFCKYKCKPGYHVPGSSRKSKKRAFKTQCTQDGSWQEGACVPVTCDPPPPKFHGLYQCTNGFQFNSECRIKCEDSDASQGLGSNVIHCRKDGTWNGSFHVCQEMQGQCSVPNELNSNLKLQCPDGYAIGSECATSCLDHNSESIILPMNVTVRDIPHWLNPTRVERVVCTAGLKWYPHPALIHCVKGCEPFMGDNYCDAINNRAFCNYDGGDCCTSTVKTKKVTPFPMSCDLQGDCACRDPQAQEHSRKDLRGYSHG
- PAPP-A cleavage of IGFBP-4 with purified STC added at the beginning of the cleavage reaction [1]: in this experiment, no inhibitory effect of STC2 was observed
- PAPP-A mediated cleavage of 125I-IGFBP-4 after overnight pre-incubation [1]: the presence of STC2 fully inhibited PAPP-A mediated IGFBP-4 cleavage
- PAPP-A proteolytic activity towards IGFBP-4 after 16 h incubation [1]: after 16 hours of incubation with STC2, PAPP-A showed no activity
- PAPP-A cleavage of IGFBP-4 with purified STC added at the beginning of the cleavage reaction [2]: STC1 still inhibited PAPP-A

B3: human PAPP-A2 (pappalysin-2) (protein)
chain: PPEESNQNGGEGSYREAETFNSQVGLPILYFSGRRERLLLRPEVLAEIPREAFTVEAWVKPEGGQNNPAIIAGVFDNCSHTVSDKGWALGIRSGKDKGKRDARFFFSLCTDRVKKATILISHSRYQPGTWTHVAATYDGRHMALYVDGTQVASSLDQSGPLNSPFMASCRSLLLGGDSSEDGHYFRGHLGTLVFWSTALPQSHFQHSSQHSSGEEEATDLVLTASFEPVNTEWVPFRDEKYPRLEVLQGFEPEPEILSPLQPPLCGQTVCDNVELISQYNGYWPLRGEKVIRYQVVNICDDEGLNPIVSEEQIRLQHEALNEAFSRYNISWQLSVHQVHNSTLRHRVVLVNCEPSKIGNDHCDPECEHPLTGYDGGDCRLQGRCYSWNRRDGLCHVECNNMLNDFDDGDCCDPQVADVRKTCFDPDSPKRAYMSVKELKEALQLNSTHFLNIYFASSVREDLAGAATWPWDKDAVTHLGGIVLSPAYYGMPGHTDTMIHEVGHVLGLYHVFKGVSERESCNDPCKETVPSMETGDLCADTAPTPKSELCREPEPTSDTCGFTRFPGAPFTNYMSYTDDNCTDNFTPNQVARMHCYLDLVYQQWTESRKPTPIPIPPMVIGQTNKSLTIHWLPPISGVVYDRASGSLCGACTEDGTFRQYVHTASSRRVCDSSGYWTPEEAVGPPDVDQPCEPSLQAWSPEVHLYHMNMTVPCPTEGCSLELLFQHPVQADTLTLWVTSFFMESSQVLFDTEILLENKESVHLGPLDTFCDIPLTIKLHVDGKVSGVKVYTFDERIEIDAALLTSQPHSPLCSGCRPVRYQVLRDPPFASGLPVVVTHSHRKFTDVEVTPGQMYQYQVLAEAGGELGEASPPLNHIHGAPYCGDGKVSERLGEECDDGDLVSGDGCSKVCELEEGFNCVGEPSLCYMYEGDGICEPFERKTSIVDCGIYTPKGYLDQWATRAYSSHEDKKKCPVSLVTGEPHSLICTSYHPDLPNHRPLTGWFPCVASENETQDDRSEQPEGSLKKEDEVWLKVCFNRPGEARAIFIFLTTDGLVPGEHQQPTVTLYLTDVRGSNHSLGTYGLSCQHNPLIINVTHHQNVLFHHTTSVLLNFSSPRVGISAVALRTSSRIGLSAPSNCISEDEGQNHQGQSCIHRPCGKQDSCPSLLLDHADVVNCTSIGPGLMKCAITCQRGFALQASSGQYIRPMQKEILLTCSSGHWDQNVSCLPVDCGVPDPSLVNYANFSCSEGTKFLKRCSISCVPPAKLQGLSPWLTCLEDGLWSLPEVYCKLECDAPPIILNANLLLPHCLQDNHDVGTICKYECKPGYYVAESAEGKVRNKLLKIQCLEGGIWEQGSCIPVVCEPPPPVFEGMYECTNGFSLDSQCVLNCNQEREKLPILCTKEGLWTQEFKLCENLQGECPPPPSELNSVEYKCEQGYGIGAVCSPLCVIPPSDPVMLPENITADTLEHWMEPVKVQSIVCTGRRQWHPDPVLVHCIQSCEPFQADGWCDTINNRAYCHYDGGDCCSSTLSSKKVIPFAADCDLDECTCRDPKAEENQ
- cleavage of 125I-IGFBP-5 by PAPP-A2 [1]: both STCs were able to partially inhibit PAPP-A2 (pappalysin-2)
- cleavage of 125I-IGFBP-5 by PAPP-A2 [2]: both STCs were able to partially inhibit PAPP-A2 (pappalysin-2)

— patent publication US20200261490
